What was measured:
[1] = target: PAM4 antigen (pancreatic cancer mucin, CaPan1 human pancreatic tumor); assay: ELISA on target mucin antigen (FIG. 9)
[2] = target: PAM4 antigen (pancreatic cancer mucin, CaPan1 human pancreatic tumor); assay: TF10/111In-IMP-288 complex mixed with excess mucin, elution analysis
[3] = target: PAM4 antigen (pancreatic cancer mucin, CaPan1 human pancreatic tumor); assay: radioiodinated TF10 mixed with mucin (not shown)
[4] = target: IMP-288 di-HSG hapten-peptide, DOTA-D-Tyr-D-Lys(HSG)-D-Glu-D-Lys(HSG)-NH2; assay: 111In-IMP-288 mixed with TF10, elution analysis (not shown)

| Substance | EC50 [1] [nM] | percent of TF10-bound IMP-288 eluting at higher molecular weight with excess mucin [2] [%] | immunoreactive fraction [3] [%] | percent of peptide bound [4] [%] |
| --- | --- | --- | --- | --- |
| PAM4-F(ab′)2 | 1.83 | – | – | – |
| TF10 bispecific ([hPAM4]2 x h679) DNL construct (bispecific antibody) | 1.42 | 92 | 87 | 90 |

Reference: US20170035908A1
